Measurements from the DeepSol protein solubility set.

Test: soluble on expression in E. coli; label from the status in PepcDB or PDB records

Soluble on expression in E. coli, not soluble:
MGSDKIHHHHHHIPFDESIQTVDDVNLAVIGIYDAFKSSALYSGNLTILPDLQADLVYGVNGNTNTFGDIWRWKDILATNTSIEAVYAGLYNVINRCNFMLDRVDRVRNNTTDDKDLYKLDQCCGEAYFARAIAYSELVKMFCKAYESDEDAANQLGVILTKHYQGNEEMKRASLKASYEFILEDLDRAAQLLALDKDYDPSVDGALFNNATYFNEYTVYALRARVALYMRKWDEAIKYSSKVIDSEYYLLASCTRTISSGVSYYKYMWTDDMSTEAIWKVGFTINSYGGKLGQIFLNYNHVNYRPDYVPANWVFGLYDSNDLRPETIFQTLQTGFSHGLSWPLLIKYAGNNEFIAANILHVSMPKVLRLSEQYLIRAEAYVQQAQPDYGRAGKDITTLRTARYSTYGGSTALSASNAMEVIEAERVKELYMEGFRLHDLKRWHKGFERKPQDQSLANGSSLKVEADDPLFVWPIPQHELDAPGSQVQPNESNK
MGSDKIHHHHHHLAVLRYTVTNTGQLSVSGSWSASVKHPLIAVVFSSGRPDAPTLGKILKQLKKRYGIKNFNAVGHSAGSAAWANWAVTPDKQGMPQLRRLITIAGPFNGFPGMPGMNGGQHITLAKDGRPNVMSDRYKPLYDNRRYFPKTAAVLNLFGNLGKGTDGRVPVNSARSLRYVVAGRAKSYTEREITNSKAQHSQLHEHNPLVNRYLYEFLNNGKITN
MGSDKIHHHHHHLGESGKNFDHRRGWVESRLFELEAVFAIDVAAFAVMSNHLHVVLRIDIETANCWTDREVLEQWHKLFNGDEITQKFVKGEVVETHEVLRLKHSIATYRSRLCDISWFMRCLNEPIARQANQEDSCTGRFWEGRFKSQALLDEAAVLACMAYVDLNPIRAKMASTPEQSDHTSIQLRIQAALRGEQPISLLPFIGNERKNQPKGIAFSLQDYLELVDDTGRIIRNDKHGAISTNSAKLLTRLNIFQENWLKLTTEFGKLFHGPVGTLQELTSYCEHLEKRRRHFASCCQHLMAS
MGSDKIHHHHHHLGIYVNPTGRSFELAINSEIFVDKSGLIKETNKCINTLQRYMCVSRPRRFGKSMAMDMLSAYYGRKTDAENLFKGLKISHDESYDRHINKYDVLKINMQDFLSVTHSVDDMLKMLCEYITDDFSIECKDIIFRDKSNIVRVMQDVFMSTGRPFVILIDEWDCLFREFTQDKEAQKKYLDFLRGWLKDKDYIALAYMTGILPIKKYGSHSALNMFTEYSMTDMGALAEYFGFTDDEVRELCDRYDMDFEEARAWYNGYKLVSHSKYGVKKYAMYSPKSVVEAMLKHKFGTYWNQTETYEALKVYIQMNMDGLKDAVIKMLAGESEKINTGTFENDMTSFATKDDVLTLLVHLGYLTYDSETEEVSIPNREVSKEYLNAISTMDWDEVSKSIKASQKLLESLWNMNGAAVADGIDKAHNEISILRYNDENSLSCTINLAFYSAREYYSIVRELPTGKGFADVCFIPRVSHLDKPAVVIELKYDKNVDGAISQIKSRQYVEALKDYKGNLLLVGINYDKKTKEHQCVIEKWKL
MGSDKIHHHHHHLGKFSHIAIAFIDVVMESDHAGLELIRWIREELHNKTIRLILRTGQPGQAPEEDVIVNYDINDYKAKSELDSRKLMTSVYSALRSYRDIMEIEQARRAQLSHRMGLERVLEATAGLFELRTLHKFADGLLTQVATLLNLDNETLLLSCNAMDAISGHVDCAGIEILAGTGQFANSSAKTILPERIDKLLRSALAQKRCLYEDNYFVGYFPTKSGLINLLYMDGINKIDDLDKKLIDIFAINVGIAFENLLLNQEVEDTQSELILRLGDVVESRSKEAANHVKRMAEYCAQLALLAGLNEYDADLLRRASPMHDIGKIAIPDAVLLKPGKLNDDEWQIMRQHPNIGHQILANSERPILKAASIIALQHHEKYDGSGYPSNLKQDEIHIFARIVAIADVFDALSHTRCWLFLPIPQKCKISDRLAQKHTVNWSLYRRIP
MGSDKIHHHHHHLKVVCISDTHEQLHNVTVPDGDVLIHAGDFTNNGKREELIKFNEEMTRFPHKYKLVVAGNHELGFDHDENQGERQDADKGLGTEDGYNILTNVTYLQDKGVTIDGVTFFGSSYHPLRGFPFYRNRAEQLAECWKAVPNDTNVLITHTPPLGYLDQFGDERWGCRDLLKTVERIQPAYHIFGHVHEQHGVLSNGNTVCYKLYENEF
MGSDKIHHHHHHLRIFGKEGCRMEMQRVIELDMPVNFRDLGGYQGLDGRQVKWRKIYRSAALNEMSARDRVKLANLRITVDCDLRSSREQRSYPDLLWPGVRFVNIGLYAEGDRFNQAHPFLRLFHHLPEFDDYLPKIYQQVLLNEHSEEGIKRVFEELLKLPEDQALVYHCAAGKDRTGIISILILMALGVDDKTIAEDYLLTDELYDFSIEKQHPTNEKLSQVIAKMNVTRGEGTAVKGITETIRQGWGSFDKFFTRKLGFKQADLEKFREMYLEEEEED
MGSDKIHHHHHHLSKLYPHAKNRQDSGMDRNPTLAQWQLAQELRRLRGDRKFSEVVKAARTTGGSLARWETPGDRGAVPGPAALERLLQIYGAEDQLERLLSLRKEARQPDRWQPYGLERSYRTYANIESQATSIEYYQSQIVPGIAQTEAYARAVIEATLHPSSDVDREVQARMERQRVLSKPERPDLWLIIAEGALRQQVGTSQVMADQIDRLIELSQEPGITLQVLPFTAGAHVAMRLAGFVIMSIAQHGITTVYIEGQNSGMFFTDSEDLAEYGMIFNRLRAACLDEGRPTRTLLERIARDHRRGEG
MGSDKIHHHHHHLTIRVLAHLAGAHLDHAIALGLRSGLGDDWLRIGGLKLFADGSLGSESAHMLLPYEGRDHTGIAVIPPAEMQEIVTRANAHGISVVVHAIGDAANRSVLDAIAAARATAASLALPNRIEHCQILDPHDIPRFAELNVIASMQPIHCTADMVMAERLWGKRCATSYAWRSLRAAGATLAFGSDAPVETMDPWAGIHAAVTRQTTDGTPDGGWYPEQRLTLTEALEAYCIGPTIAGADAERRGRLIPGMFADLAVLNGDPFQMPVTHLHTLHAELTMVGGKIVFNRTSR
MGSDKIHHHHHHMAAPAGGGGSAVSVLAPNGRRHTVKVTPSTVLLQVLEDTCRRQDFNPSEYDLKFQRTVLDLSLQWRFANLPNNAKLEMVPVSRSREGPENIVRIAFQLDDGSRLQDAFCSRQTLWELLSHFAQTRERLQQLGEKTPVCVYMRNEVTGRAALQNTTLQSLGLTGGSATIRFVIKQCDTAGKQESIAVRSKAPGSPVSSLSADQASSSTLLPLNSGEFSRGDLNHEGDANTSGTGLEGGPKPTDAQTKQSTSEPASAPFVPFSGGGQRLGGPSASLRPLTSPSANSSKSFSGPGGPSKPKKPKPGEEPQQEPEPPVDRDPVVYHPDLEDLLQPWPAEVPDEFFEVTVDDVRRRLAQLKSERKRLEEAPLVTKAFREAQMKEKLERYPKVALRVLFPDRYILQGFFRPSETVGDLRDFVRSHLGNPELSFYLFIAPPKMVLDDHTLTLFQANLFPAALVHFGAEEPTGLYLEPGLLEHTVSPSTADVLVARCMSRASGSPPLLPAPDPVSLESEPIAEDGALGPPEPIQGTAQPVKRSLGKVPKWLKLPASKR
MGSDKIHHHHHHMAATLEAVPSTKTADKKTEISEADAARELVRMAKEQGLSLTGPDGLLKQLTKTVIETALDEEMTEHLGYEKHDSAGKQTANSRNGVRPKTVLTETTGPVEVDVPRDRAGTFEPVIVKKRQRRLTGVDEMVLSLYAKGLTTGEISAHFAEIYGASVSKETVSRITDRVLEEMAAWQNRPLDEVYAAIFIDAIVVKVRDGQVANRPIYAAIGVTLEGEKDILGLWAGTGGEGAKFWMSVLTDIKNRGVKDTFFLVCDGLKGLPEVVTNVWPLATVQTCIIHLIRNTFRLASRQDWDALKRDVKPIYTAPNAEAARTALEELAERWGRKYGAIVRLWENAWEELIPFLDYDVEIRRVICSTNAIESLNARYRRAVKARGHLPTEQAALKCLYLVTRSLDPTGAGKTRWAVRWKPALNAFAITFSDRFPAAESY
MGSDKIHHHHHHMADPQTLDKIIDKTLDTVGKSREQIFEISEQSRNEYVSLEQELQEVRMKVAEIIDQSDRAEVHARFARNRLAEVSKQFHRYSNEEIRKVYEQANELQVKLALLQQEEQQLRDRRDAIERRLLNLKDTIERAEELVGQMTVVYNFLTGDLRQVGEALEDAREKQAFGLQIIQAQEEERRKLSREIHDGPAQMMANVLLRSELVERIYHDKGIDEALKEIRDLRKMVKSSLAEVRRIIYDLRPMALDDLGLIPTLKKYVKTFEEHTGIFVDFKHIGKGERFPEHVEIALFRLVQEALQNTRKHAKASHVHVKIEEQKTKFTVVIKDNGKGFDQTEKKEGSFGLVGMKERVNMLKGQLVIRTKPNDGTTIIISIPITTEE
MGSDKIHHHHHHMAEAGTLAVLVPEITIEELFTAQGADLSRRSPRQDMVDLNIKLLAEARELAKVSIIWQEVKVLGSQQQELYLEGGLTLRGSLLPKVLGPAESAVLFAMTIGEGIDERVKEYTHQGKTLEAFILDAAGSAILAKAAYHAISELAGLYKEKQLDTTFSLGPGHSYWKGLEDVRTIIDYLKGEQIGISLTDSNLMLPKKSIAMVMGVGSNLPDFKGKTHCDFCHLKGSCTMRELGVNNC
MGSDKIHHHHHHMAKEKKSRDTQKKIFVLDTSVIIYDHNAVKNFEEHDLAIPITVLEELDNFKKGNDIKNFEAREFTRFLDELAADSASLQDWIQLEGRDKGKLKVIMNTHGTKETDAEKIFDDRKNDHKILNAAISVQAENPDKKVILVSKDINLRLKAKSLNIPSEDYNTGKVKDIDLLYTGHTTIENVAPEKINELYEKGYCDIDAIPEQDVSKNHYYILKSVKSSALAYYNPVDKRLEHVGKTPAYGIKPRNAEQAFAIHAVLDPHIKLVSIQGVAGTGKTLIALAATLEQRKDFKQIFLARPIVPLSNKDIGYLPGDIKSKLNPYMEPLFDNLKFIQNQFNETDQDYQRITDMVNKEKLVITPLAYIRGRSLSNIVFIVDEAQNLTPHEVKTIISRAGENCKIIFTGDIFQIDTPYLDSESNGLSYLIDRLKNQDLYAHITLEKGERSELANLANELL
MGSDKIHHHHHHMAKNKTAYVCNECGQDFPRWQGQCSACQEWNTITEVRLGAASPGRSTKFVGYAGASSNEVKTLDQIDLNAMPRILSHFGELDRVLGGGIVPGSAILIGGHPGAGKSTLLLQTLCHLAEQMPALYVTGEESLQQVAMRAHRLGLPTNKLRMLSETSVEQICEVALKELPKVIVVDSIQVMHMSDVASSPGSVSQVRESASYLTRFAKENGIAVIMVGHVTKDGSLAGPKVLEHCIDCSVMFEGDSDSRYRTLRSHKNRFGAINELGVFAMTERGLKEVANPSAIFLSRGEEESSGSLVMVVWEGTRPLLVELQVLVDNSAMSNPRRVAVGMDANRLAMLLAVMHRHGGLQMSDQDVFVNVVGGVKVTETSADLTLLLAMVSSFRGDILPSDLVAFGEVGLSGEIRPVPNGQERLIEAAKHGFKRAIVPKANVPKKPPAGMEVVGVSKLSEALEAI
MGSDKIHHHHHHMAKYEQLAQELKTRIAQGVWQAGDKLPSLRQTVADSGLSLMTVLNAYQLLESQGVISAQAKSGYLVAPKPELIARQGEAFRYPERQKPIYLSDSVDINEFVFNVLQASKQADIVPFGSGFPDPSLFPQQALARSLVKVTRHMSPSFAADNLPPGNAGLRKAISQRYAKLGMSISPDEIIITSGAMEALNLSLATLTQAGDWVVIESPTFYGAMQAIERLKLKAIAVATDPQQGIDLEALAEVLKTYPVKACWLMSQHQNPLGCSLSDTKKQALYQLLNEHKVSLIEDDVYQELYVDSSAPRSVKAFDTEGRVLHCGSFSKSLIAGYRVGWVAAGCHAPQLQRLQVMSTLSTSAPMQLAIADFIQSAQYERHLKQLRKKLASRKLAMYQLLCAHLPESVGVNFAQGGYFLWLALPAHMDATQIYYQAIERGISIAPGNLFSNQVEFRHFMRLNASYECSSEIVSAVMVLAELIRNYSRRS
